“And” between values parts separate entries of the source, which are not always exact repeats. Equal values may be shown once.
Biological target: IL-12 receptor on mouse lineage negative bone marrow cells (mouse) (UniProt Q60837)
Assay: cell-based or functional assay

IL-12 receptor on mouse lineage negative bone marrow cells (mouse), sequence (Q60837 20-738, chain 1 of 2): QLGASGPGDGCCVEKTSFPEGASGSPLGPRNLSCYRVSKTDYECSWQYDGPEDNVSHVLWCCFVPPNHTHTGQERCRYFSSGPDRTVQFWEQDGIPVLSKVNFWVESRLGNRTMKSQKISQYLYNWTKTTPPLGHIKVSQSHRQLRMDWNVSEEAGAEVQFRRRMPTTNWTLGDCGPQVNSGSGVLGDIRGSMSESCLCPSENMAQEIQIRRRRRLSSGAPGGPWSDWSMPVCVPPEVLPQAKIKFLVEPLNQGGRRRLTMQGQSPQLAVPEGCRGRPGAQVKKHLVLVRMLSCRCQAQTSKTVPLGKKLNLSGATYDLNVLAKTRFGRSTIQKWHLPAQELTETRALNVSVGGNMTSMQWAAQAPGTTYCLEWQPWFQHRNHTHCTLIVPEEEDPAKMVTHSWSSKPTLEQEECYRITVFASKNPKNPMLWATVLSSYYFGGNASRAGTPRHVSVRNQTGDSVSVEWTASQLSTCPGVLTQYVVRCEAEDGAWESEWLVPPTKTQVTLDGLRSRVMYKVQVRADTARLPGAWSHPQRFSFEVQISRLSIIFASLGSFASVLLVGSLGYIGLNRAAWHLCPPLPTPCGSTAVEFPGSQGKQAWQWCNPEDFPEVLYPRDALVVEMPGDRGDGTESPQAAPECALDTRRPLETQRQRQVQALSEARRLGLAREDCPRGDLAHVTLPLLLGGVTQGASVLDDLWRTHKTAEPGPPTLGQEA
IL-12 receptor on mouse lineage negative bone marrow cells (mouse), sequence (P97378 24-874, chain 2 of 2, further chain): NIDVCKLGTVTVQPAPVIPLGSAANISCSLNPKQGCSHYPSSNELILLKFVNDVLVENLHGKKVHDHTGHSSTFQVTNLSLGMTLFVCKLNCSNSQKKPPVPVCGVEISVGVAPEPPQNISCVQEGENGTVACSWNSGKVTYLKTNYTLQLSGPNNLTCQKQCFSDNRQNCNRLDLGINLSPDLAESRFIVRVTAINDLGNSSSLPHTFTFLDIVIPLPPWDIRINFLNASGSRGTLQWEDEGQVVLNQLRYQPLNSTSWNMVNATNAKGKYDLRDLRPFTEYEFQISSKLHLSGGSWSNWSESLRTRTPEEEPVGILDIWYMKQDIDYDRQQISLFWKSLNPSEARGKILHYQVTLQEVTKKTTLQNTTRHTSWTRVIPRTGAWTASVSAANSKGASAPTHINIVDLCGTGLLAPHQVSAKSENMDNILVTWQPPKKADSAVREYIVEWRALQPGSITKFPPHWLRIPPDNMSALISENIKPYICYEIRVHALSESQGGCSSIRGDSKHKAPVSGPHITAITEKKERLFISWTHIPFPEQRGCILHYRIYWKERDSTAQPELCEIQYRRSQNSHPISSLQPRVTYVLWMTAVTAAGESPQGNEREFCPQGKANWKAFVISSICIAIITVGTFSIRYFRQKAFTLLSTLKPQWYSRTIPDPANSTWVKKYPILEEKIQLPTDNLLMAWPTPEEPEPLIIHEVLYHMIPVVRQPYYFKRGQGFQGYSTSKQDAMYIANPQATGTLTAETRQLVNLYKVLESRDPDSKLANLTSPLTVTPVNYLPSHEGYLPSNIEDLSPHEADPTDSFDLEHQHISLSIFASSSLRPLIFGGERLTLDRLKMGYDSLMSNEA

Fold-Increase in Lin- IL-12R+ cells (FACS of bone marrow after in vivo IL-12, 100 ng/mouse): 5.4 fold and 3.5 fold
Substance: exogenous IL-12 (IL-12 ligand) injected into C57BL/6 mice in Example 7
